In this assay the target is wild-type Ralstonia solanacearum Isocyanide Hydratase (Ralstonia solanacearum). Briefly: crystal structure.

Consider “wild-type Ralstonia solanacearum Isocyanide Hydratase (enzyme)”, for which the stoichiometry N was 2.

The stoichiometry N is a count of units in the complex or per binding partner.

These data come from paper PMC10792529 (Proteins, 2023).
